This note sets out measurements from patent US20240132578A1.

Holding throughout (experiment): cell-based or functional assay
Test [1] concerns the target HIV-1 Env of isolate 92TH021 (subtype AE) (HIV-1).
For test [2], the target named is HIV-1 Env of pseudovirus isolate MGRM-C-013 (clade C) (HIV-1).
Test [3] deals with HIV-1 Env of isolate 98CN006 (pseudovirus) (HIV-1).
Test [4] has as its target HIV-1 Env of isolate MGRM-F1-018 (HIV-1).
In test [5] the target is HIV-1 Env of isolate 92UG024 (pseudovirus) (HIV-1).
In test [6] the target is HIV-1 Env of isolate JRFL (HIV-1).
Test [7] deals with HIV-1 Env of isolate MGRM-F1-023 (HIV-1).
In test [8] the target is HIV-1 Env of isolate MGRM-D-029 (HIV-1).
The target in test [9] is HIV-1 Env of pseudovirus isolate MGRM-C-020 (clade C) (HIV-1).
For test [10], the target named is HIV-1 Env of isolate MGRM-F1-013 (HIV-1).
For test [11], the target named is HIV-1 Env of isolate 92UG001 (pseudovirus) (HIV-1).
Test [12] has as its target HIV-1 JR-CSF Env I307A (HIV-1 (isolate JR-CSF, clade B)) (UniProt P20871).
The target of test [13] is HIV-1 Env of isolate MGRM-AG-005 (subtype AG) (HIV-1).
Test [14] addresses HIV-1 JR-CSF Env R419A (HIV-1 (isolate JR-CSF)) (UniProt P20871).
Test [15] concerns the target HIV-1 JR-CSF Env S334A (HIV-1 isolate JR-CSF) (UniProt P20871).
Test [16] concerns the target HIV-1 envelope glycoprotein (Env) of isolate MG RM-A-010, subtype A (HIV-1).
Test [17] concerns the target HIV-1 Env of isolate MGRM-AG-003 (pseudovirus) (HIV-1).
Test [18] addresses HIV-1 Env of pseudovirus MGRM-F1-016 (HIV-1).
The target of test [19] is HIV-1 Env of pseudovirus MGRM-D-021 (HIV-1).
Test [20] addresses HIV-1 Env of pseudovirus MGRM-D-029 (HIV-1).
The target of test [21] is HIV-1 Env of pseudovirus MGRM-D-019 (HIV-1).
In test [22] the target is HIV-1 Env of isolate MGRM-G-009 (subtype G) (HIV-1).
Test [23] addresses HIV-1 Env of pseudovirus isolate JR-FL (clade B) (HIV-1).
In test [24] the target is HIV-1 Env of isolate MGRM-AE-002 (pseudovirus) (HIV-1).

In the case of 5114_A19 (PGT-128) (antibody), the IC50, pseudovirus neutralization was 0.01 µg/mL in test [1], greater than 50 µg/mL in [2], 5.85 µg/mL in test [9] and 0.037 µg/mL in test [13]. Moreover, the IC50 (µg/mL), pseudovirus neutralization is 0.015 µg/mL in test [3]; 0.023 µg/mL in test [4]; greater than 50 µg/mL in test [5]; 0.007 µg/mL in test [6]; 0.007 µg/mL in test [7]; greater than 50 µg/mL in [8]. For the same substance, the figures for the IC50 (µg/mL), pseudovirus neutralization in [10] and in [11] were 12.7 µg/mL and greater than 50 µg/mL, respectively. The Fold IC50 increase relative to wild-type in test [12] came out at 3.7 fold. The Fold IC50 increase relative to wild-type (pseudovirus neutralization) in test [14] stood at 0.5 fold.
As to 4858_P08 (PGT-123) (antibody), the values for the Fold IC50 increase relative to wild-type in test [15] and in [12] were greater than 50 fold and 5.9 fold, respectively. This substance returned an IC50, pseudovirus neutralization in test [16] of 0.705 µg/mL. The substance further displayed an IC50 (µg/mL), pseudovirus neutralization in test [17] greater than 50 µg/mL. In addition, in test [14], the Fold IC50 increase relative to wild-type (pseudovirus neutralization) was 0.7 fold.
In turn, 5141_B17 (PGT-126) (antibody) came in with a Fold IC50 increase relative to wild-type in [15] greater than 30 fold. Also, the IC50, pseudovirus neutralization in test [16] amounted to 0.002 µg/mL. This substance registered an IC50 (µg/mL), pseudovirus neutralization in test [17] greater than 50 µg/mL. This substance displayed a Fold IC50 increase relative to wild-type (pseudovirus neutralization) in test [14] of 1.2 fold.
For 5136_H01 (PGT-131) (antibody), the IC50, pseudovirus neutralization in test [1] was 0.014 µg/mL; in [2] it was greater than 50 µg/mL; in test [9] it was greater than 50 µg/mL; in test [13], 1.04 µg/mL. The IC50 (µg/mL), pseudovirus neutralization in [3] is 35.3 µg/mL; in test [4] it was greater than 50 µg/mL; in test [5], greater than 50 µg/mL; in test [6] it was 0.454 µg/mL; in [7] it was greater than 50 µg/mL; in [8] it was greater than 50 µg/mL. Also, the IC50 (µg/mL), pseudovirus neutralization in test [10] and in [11] was greater than 50 µg/mL each time. The same substance came in with a Fold IC50 increase relative to wild-type in [12] greater than 170 fold. In addition, in test [14], the Fold IC50 increase relative to wild-type (pseudovirus neutralization) was found to be 1.7 fold.
For the substance PGT-141 (4964_G22; 4993_K13) (antibody), the IC50, pseudovirus neutralization in test [18] was greater than 50 µg/mL; in test [19], greater than 50 µg/mL; in test [20], 0.057 µg/mL; in [21], 1.66 µg/mL.
In the case of VRC01 (antibody), the IC50, pseudovirus neutralization in [18] turned out to be 0.517 µg/mL; in test [23], 0.034 µg/mL; in test [19], 33.4 µg/mL; in test [20], 3.22 µg/mL; in [21], 0.119 µg/mL. The substance also registered an IC50 (µg/mL), pseudovirus neutralization in [22] of 0.073 µg/mL. The IC50 (µg/mL), single-round pseudovirus neutralization in [24] stood at 0.217 µg/mL.
As for 5147_N06 (PGT-130) (antibody), the figures for the Fold IC50 increase relative to wild-type in test [15] and in test [12] were 0.5 fold and 1000 fold, respectively. Moreover, the IC50, pseudovirus neutralization is 0.009 µg/mL in [1], greater than 50 µg/mL in test [2], greater than 50 µg/mL in test [9] and 0.54 µg/mL in test [13]. In addition, the IC50 (µg/mL), pseudovirus neutralization was 0.258 µg/mL in test [3]; greater than 50 µg/mL in test [4]; greater than 50 µg/mL in test [5]; 0.046 µg/mL in test [6]; 0.05 µg/mL in test [7]; greater than 50 µg/mL in [8]. Moreover, the IC50 (µg/mL), pseudovirus neutralization in test [10] and in test [11] was greater than 50 µg/mL in each case. Further, the Fold IC50 increase relative to wild-type (pseudovirus neutralization) in test [14] worked out at 2.6 fold.
In the case of PGT-144 (4970_K22) (antibody), the IC50, pseudovirus neutralization in [18] was greater than 50 µg/mL; in test [19], greater than 50 µg/mL; in [20] it was 0.459 µg/mL; in test [21] it was greater than 50 µg/mL.
In the case of 5145_B14 (PGT-127) (antibody), the Fold IC50 increase relative to wild-type in [15] is greater than 500 fold; in [12] it was 10.2 fold. Further, the IC50, pseudovirus neutralization in test [16] is 0.017 µg/mL. The IC50 (µg/mL), pseudovirus neutralization in test [17] is greater than 50 µg/mL. The substance also registered a Fold IC50 increase relative to wild-type (pseudovirus neutralization) in test [14] of 2.5 fold.
For the substance PGT-142 (4995_E20) (antibody), the IC50, pseudovirus neutralization is greater than 50 µg/mL in test [18], greater than 50 µg/mL in test [19], 0.192 µg/mL in test [20] and 0.155 µg/mL in [21].
Regarding 5343_B08 (PGT-135) (antibody), the Fold IC50 increase relative to wild-type in test [15] is greater than 30 fold. For the same substance, the IC50, pseudovirus neutralization in test [1], in test [2], in test [9] and in test [13] was greater than 50 µg/mL in each case. The IC50 (µg/mL), pseudovirus neutralization in test [3] was 0.429 µg/mL; in test [4] it was greater than 50 µg/mL; in test [5], 0.01 µg/mL; in test [6], greater than 50 µg/mL; in test [7], 0.088 µg/mL; in test [8] it was 30.8 µg/mL. The IC50 (µg/mL), pseudovirus neutralization was 21.1 µg/mL in [10] and greater than 50 µg/mL in test [11]. In test [14], this substance displayed a Fold IC50 increase relative to wild-type (pseudovirus neutralization) of 3.9 fold.
For 5123_A06 (PGT-125) (antibody), the results for the Fold IC50 increase relative to wild-type in test [15] and in test [12] were 0.8 fold and 5 fold, respectively. For the same substance, in test [16], the IC50, pseudovirus neutralization came out at 0.004 µg/mL. This substance showed an IC50 (µg/mL), pseudovirus neutralization in test [17] greater than 50 µg/mL. In [14], the Fold IC50 increase relative to wild-type (pseudovirus neutralization) was 1 fold.
With PGT-143 (4980_N08) (antibody), the IC50, pseudovirus neutralization in [18] was greater than 50 µg/mL; in test [19], greater than 50 µg/mL; in test [20], 0.2 µg/mL; in test [21], 0.277 µg/mL.
As for PGT-145 (4995_P16) (antibody), the IC50, pseudovirus neutralization is 17.5 µg/mL in test [18], greater than 50 µg/mL in test [19], 0.03 µg/mL in test [20] and 0.111 µg/mL in test [21].
